The results in this text go back to paper doi:10.1101/2024.05.07.593072.

In the assay the target is H-2Kb MHC class 1 molecule on RMA-S cells (mouse (endogenous in RMA-S)). The assay is described as follows: peptide-induced MHC stabilisation assay.

“OVA peptide (SIINFEKL) synthesized with PCR-IVTT reaction” came in with a H-2Kb-positive cells of 55.3%.
